From US12410245 (UNIVERSITY OF VIRGINIA PATENT FOUNDATION, dated 2025)
Numbering of substitutions follows the chain as printed. “And” between values parts separate entries of the source, which are not always exact repeats. Equal entries are not always repeated.

Experiments:
FnIII9*10 [1] = molecular target: FnIII9*10 (UniProt P02751); assay: SPR (Biacore 2000), integrin immobilized, Fn fragment as analyte
FnIII9-4G-10 [2] = molecular target: FnIII9-4G-10 (UniProt P02751); assay: as above
FnIII9*10 [3] = molecular target: FnIII9*10 (UniProt P02751); assay: SPR
FnIII9-4G-10 [4] = molecular target: FnIII9-4G-10 (UniProt P02751); assay: SPR
FnIII9-4G-10 [5] = molecular target: FnIII9-4G-10 (UniProt P02751); assay: SPR, ratio of the KD values (107 nM on FnIII9*10 against 16 nM on FnIII9-4G-10)
FnIII6-9 = molecular target: T1, FnIII6-9 (UniProt P02751-1 1085-1446, limits assumed); assay: SPR, Fn fragment immobilized; SPR, FnIII6-9 immobilized (other target: fragment with the 9th repeat)
T1 construct: domain: FnIII6-9; also called FnIII9 (FnIII6-9); Fn fragment including the 9th type III repeat
T1 sequence (P02751 other isoform, or with tags, fused parts or gaps limits assumed): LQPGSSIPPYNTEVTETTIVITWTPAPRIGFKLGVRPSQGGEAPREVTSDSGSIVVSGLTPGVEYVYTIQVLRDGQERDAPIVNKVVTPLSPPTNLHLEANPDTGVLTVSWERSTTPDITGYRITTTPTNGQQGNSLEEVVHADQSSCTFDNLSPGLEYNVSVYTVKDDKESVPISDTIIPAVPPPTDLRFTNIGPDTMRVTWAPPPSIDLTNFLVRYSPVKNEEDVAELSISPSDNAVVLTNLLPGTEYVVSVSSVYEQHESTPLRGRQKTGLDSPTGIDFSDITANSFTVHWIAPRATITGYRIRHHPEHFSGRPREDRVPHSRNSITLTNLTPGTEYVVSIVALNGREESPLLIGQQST

FnIII10-14 = molecular target: T2, FnIII10-14 (UniProt P02751-8 1447-1901); assay: SPR, Fn fragment immobilized; SPR, FnIII10-14 immobilized; fitted KD given in the text (FIGS. 9D and 9E)
T2 construct: domain: FnIII10-14; also called FnIII10 (FnIII10-14); Fn fragment including the 10th type III repeat
T2 sequence (P02751 other isoform, or with tags, fused parts or gaps limits assumed): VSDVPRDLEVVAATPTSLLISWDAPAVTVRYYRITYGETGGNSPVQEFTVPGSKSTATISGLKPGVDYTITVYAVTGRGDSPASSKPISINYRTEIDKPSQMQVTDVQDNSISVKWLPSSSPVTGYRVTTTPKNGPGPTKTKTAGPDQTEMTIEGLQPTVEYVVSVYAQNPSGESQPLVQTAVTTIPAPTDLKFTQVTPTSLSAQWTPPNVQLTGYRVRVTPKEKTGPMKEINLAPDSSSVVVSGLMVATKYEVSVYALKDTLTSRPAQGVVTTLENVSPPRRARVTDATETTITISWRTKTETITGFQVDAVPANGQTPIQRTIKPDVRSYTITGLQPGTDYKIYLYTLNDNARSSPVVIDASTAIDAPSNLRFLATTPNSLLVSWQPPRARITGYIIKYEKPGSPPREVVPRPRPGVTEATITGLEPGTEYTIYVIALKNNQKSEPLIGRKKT

FnIII9-4G-10 [6] = molecular target: FnIII9-4G-10 (UniProt P02751); assay: phage ELISA on maleimide plates (HRP anti-M13); absorbance (450 nm minus 650 nm) on 4G divided by absorbance on 9*10

Chain of FnIII9-4G-10 (P02751 other isoform, or with tags, fused parts or gaps): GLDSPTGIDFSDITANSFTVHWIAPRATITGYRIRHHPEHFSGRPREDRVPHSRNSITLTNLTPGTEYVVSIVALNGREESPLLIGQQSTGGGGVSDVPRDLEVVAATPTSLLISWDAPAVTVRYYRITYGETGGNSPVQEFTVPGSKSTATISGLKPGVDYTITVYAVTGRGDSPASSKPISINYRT

“integrin αvβ3 (R&D Systems) (from UniProt P06756 31-992; P05106 27-718) (receptor)” gave a Kd (FnIII9*10 [1]) of 40 nM and a Kd (FnIII9-4G-10 [2]) of 40 nM.

B1: H5 scFv (scFv)
scFv: EVQLLESGGGLVQPGGSLRLSCAASGFTFSSYAMSWVRQAPGKGLEWVSDIYDGGGTNYADSVKGRFTTSRDNSKNTLYLQMNSLRAEDTAVYYCAKTADNFDYWGQGTLVTVSSGGGGSGGGGSGGGGSTDIQMTQSPSSLSASVGDRVTITCRASQSISSYLNWYQQKPGKAPKLLIYAASTLQSGVPSRFSGSGSGTDFTLTISSLQPEDFATYYCQQANSAPTTFGQGTKVEIKRAAA
notes: Soluble scFv from E. coli, purified by Protein-A; also called clone H5; H5 antibody
With B1 the Kd (FnIII9*10 [3]) was 107 nM, the Kd (FnIII9-4G-10 [4]) was 16 nM and the selectivity of binding (fold, against FnIII9-10 as reference) (FnIII9-4G-10 [5]) was 10 fold. For the same molecule, the Kd (FnIII6-9) was 34.8 nM, the Kd (FnIII10-14) was 5100 nM and the 4G/9*10 Ratio (FnIII9-4G-10 [6]) was 1.21 and 1.02 and 1.06.

B2: H5 Modified Clone R1H6 (scFv)
scFv: B1 scFv with L78M
For B2, the 4G/9*10 Ratio (FnIII9-4G-10 [6]) was 1.62.

B3: H5 Modified Clone R1F8/R1H8 (scFv)
scFv: B1 scFv with A96T
For B3, the 4G/9*10 Ratio (FnIII9-4G-10 [6]) was 1.42 and 1.33.

B4: H5 Modified Clone R2G3 (scFv)
scFv: B1 scFv with P41S, N73D
Work on B4 yielded a 4G/9*10 Ratio (FnIII9-4G-10 [6]) of 2.53.

B5: H5 Modified Clone R4B8 (scFv)
scFv: B1 scFv with D103Y
Molecule B5 has a 4G/9*10 Ratio (FnIII9-4G-10 [6]) of 1.49.
